From publication PMC8659110 (2021)
Primed or numbered codes have the meaning given here. Where no end group is shown, it is not given here. Cy5 = Cy5 fluorophore (fluorescent dye); NODAGA′ = chelator

B1: KDKPPR peptide (peptide)
peptide: KDKPPR
B2: ^natGa-NODAGA-K(Cy5)DKPPR (peptide)
peptide: {NODAGA′}-K(Cy5)DKPPR
modifications: also: NODAGA complexed with natGa

Target: NRP-1 recombinant chimeric protein ( (recombinant human/rat NRP-1 …, UniProt O14786 22-856))
Assay: ELISA; competition with biotinylated VEGF-165

NRP-1 recombinant chimeric protein (, sequence (O14786 22-856, change not shown): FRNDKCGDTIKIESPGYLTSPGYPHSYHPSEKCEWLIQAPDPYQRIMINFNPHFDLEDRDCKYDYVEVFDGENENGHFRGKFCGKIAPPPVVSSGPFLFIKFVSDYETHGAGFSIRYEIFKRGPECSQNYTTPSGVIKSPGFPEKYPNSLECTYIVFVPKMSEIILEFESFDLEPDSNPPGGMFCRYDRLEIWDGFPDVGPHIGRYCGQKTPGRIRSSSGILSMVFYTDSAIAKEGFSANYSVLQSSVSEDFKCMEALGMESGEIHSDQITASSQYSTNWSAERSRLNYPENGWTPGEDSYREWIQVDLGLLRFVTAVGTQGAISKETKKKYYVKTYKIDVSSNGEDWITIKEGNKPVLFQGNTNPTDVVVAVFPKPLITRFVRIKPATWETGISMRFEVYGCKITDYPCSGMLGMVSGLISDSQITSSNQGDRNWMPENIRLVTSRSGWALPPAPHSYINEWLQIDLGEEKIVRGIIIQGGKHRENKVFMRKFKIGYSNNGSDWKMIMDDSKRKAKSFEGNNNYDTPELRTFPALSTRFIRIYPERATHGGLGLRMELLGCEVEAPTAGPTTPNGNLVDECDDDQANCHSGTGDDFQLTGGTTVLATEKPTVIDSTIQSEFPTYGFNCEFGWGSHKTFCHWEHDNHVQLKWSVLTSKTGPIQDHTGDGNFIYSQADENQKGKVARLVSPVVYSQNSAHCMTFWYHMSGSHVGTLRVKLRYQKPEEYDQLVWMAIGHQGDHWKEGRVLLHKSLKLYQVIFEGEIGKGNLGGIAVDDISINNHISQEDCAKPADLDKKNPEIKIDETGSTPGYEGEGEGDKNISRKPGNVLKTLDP

Binder	IC50
B1	2000 nM
B2	100 nM
